Assay results: publication PMC4476257 (Molecular pharmaceutics, 2015)
Read-outs that look alike come from different tables or passages of the source. Bridge positions count the residues as written; N and C are the ends. Square brackets hold non-standard residues; d marks the D form. Ends that are not written are not given here. Peptide text beside a SMILES is read from it. I, II: the chains in the order shown. * marks the point of attachment. Dolaproine = CO[C@@H]([C@@H]1CCCN1)[C@@H](C)C(=O)O; Dil = CC[C@H](C)[C@H](NC)[C@@H](CC(=O)O)OC; X1 = C[C@@H](N*)[C@@H](O)c1ccccc1; NMeV = CN[C@H](C(=O)O)C(C)C; Mpa = O=C(O)CCS

Experiments:
[1] = test system: HeLa cells; experiment: Anti-proliferation assay; details: 5 µM, physiological pH, 2 h treatment, MTT after 72 h, Figures 3A and 3E
[2] = test system: HeLa and MDA-MB-231 cells; experiment: Anti-proliferation assay, statements pooled over both cell lines; type: cell-based, human; details: HeLa and MDA-MB-231 (Figures 3E, 3F), 2.5 µM, 2 h treatment, MTT after 72 h
[3] = peptide:lipid 1:300, 7 µM, 25 °C, excitation 295 nm
[4] = pH 7.4 to pH 5.0, POPC liposomes, peptide:lipid 1:300, 7 µM, 25 °C
[5] = test system: HeLa and MDA-MB-231 cells; experiment: Cell membrane integrity assay; type: cell-based, human; details: HeLa and MDA-MB-231, 10 µM, 2 h, pH 7.4 or pH 5.0; mean, n=4; Figure 4
[6] = test system: MDA-MB-231 cells; experiment: Anti-proliferation assay; type: cell-based, human; details: MDA-MB-231, 1.25 µM, 2 h treatment, MTT after 72 h; Figures 3B and 3D
[7] = toxin derivatives conjugated to pHLIP; cited from earlier work

CC[C@H](C)[C@@H]([C@@H](CC(=O)N1CCC[C@H]1[C@H](OC)[C@@H](C)C(=O)N[C@H](C)[C@@H](O)c1ccccc1)OC)N(C)C(=O)[C@@H](NC(=O)[C@@H](NC)C(C)C)C(C)C [MMAE, monomethyl auristatin E] (H-[NMeV]V[Dil][Dolaproine]-X1)
cytotoxicity [1]: about 70%
cytotoxicity [2]: 20–30%

I: GGEQNPIYWARYADWLFTTPLLLLELALLVDADEGTCG-NH2 / II: [Mpa][NMeV]V[Dil][Dolaproine]-X1 (disulfide I:37-II:1) [pHLIP(D25E)-MMAE]
Trp fluorescence emission maximum ([3]; pH 5.0, POPC liposomes): 329 nm
Trp fluorescence emission maximum ([3]; pH 7.4, POPC liposomes): 347 nm
pH-dependent secondary structure transition (CD) [4]: transition from an unstructured conformation to an α-helix
disruption of the plasma membrane (trypan blue uptake) [5]: neither conjugates, nor low pH treatment, caused disruption of the membranes
cell killing at 1.25 µM (percentage as printed) [6]: 49%

amanitin
pK of insertion [7]: 5.9
